We go through one molecule from article PMC6950786 (EBioMedicine, 2020).

The target in this test is T1, GST-TNFAIP1(1–316) (UniProt Q13829 1-316).
T1 sequence (looked up): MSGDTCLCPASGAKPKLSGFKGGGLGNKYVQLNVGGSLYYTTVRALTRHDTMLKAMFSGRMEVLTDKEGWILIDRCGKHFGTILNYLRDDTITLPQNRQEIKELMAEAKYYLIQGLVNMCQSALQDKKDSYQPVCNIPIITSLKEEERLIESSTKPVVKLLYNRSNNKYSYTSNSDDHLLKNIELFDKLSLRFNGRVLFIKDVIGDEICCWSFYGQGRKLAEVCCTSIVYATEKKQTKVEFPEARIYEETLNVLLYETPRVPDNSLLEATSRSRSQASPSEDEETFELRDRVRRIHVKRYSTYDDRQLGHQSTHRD
The test is described as follows: pull-down.

B1: His-CSNK2B (natural protein)
chain: not shown
B1: the binding result is reported as “binds”.
